Results as given in article PMC10641296.

Biological target: SCM-2 on the surface of S. canis strain IMT40096 (Streptococcus canis (endogenous in strain IMT40096))
Assay: flow cytometry on cells; S. canis bacteria (mid-exponential phase) incubated with FITC-labeled human fibrinogen in PBS, 30 min at 37°C, fixed; MFI normalized to SCM-1 S. canis G361; scm2 knock-out of IMT40096 as control

Q: With “FITC-labeled human fibrinogen (from UniProt P02671 36-866; P02675 45-491; P02679 27-453) (complex)” as the substance, how does the fold of fluorescence against S. canis G361 read?
A: Its fold of fluorescence against S. canis G361 is > 3 fold of G361.
